These results are taken from the DeepSol protein solubility set.

This data set is described as follows: soluble on expression in E. coli; label from the status in PepcDB or PDB records.
In the case of “MERVNVVGAGLAGSEAAWTLLRLGVPVRLFEMRPKRMTPAHGTDRFAEIVCSNSLGGEGETNAKGLLQAEMRRAGSLVMEAADLARVPAGGALAVDREEFSGYITERLTGHPLLEVVREEVREIPPGITVLATGPLTSEALAEALKRRFGDHFLAYYDAASPIVLYESIDLTKCFRAGRYGQSADYLNCPMTEEEYRRFHQALLEAQRHTPHDWEKLEFFEACVPVEELARRGYQTLLFGPMKPVGLVDPRTGKEPFAVVQLRQEDKAGRMWSLVGFQTGLKWPEQKRLIQMIPGLENAEIVRYGVMHRNTYLNAPRLLGETLEFREAEGLYAAGVLAGVEGYLESAATGFLAGLNAARKALGLPPVAPPEESMLGGLVRYLATANPEGFQPMYANWGLVPPVEGRMGKKEKRQAMYRRGLEAFSAWLSGLNPPLPRPEAALV”, the “soluble on expression in E. coli” value was “soluble”.

As for “MSKTFKDYGTGSGKDVIADEKPFSILLMGVDTGSSERTSKWEGNSDSMILVTVNPKTKKTTMTSLERDILVKLSGSKTNDQTGYDAKLNAAYAAGGAKMAIMTVQDMLDIKIDKYVQINMEGLVQLVDAVGGITVTNHFDFPISIEEHEPEFTASVEPGTHKINGEQALVYSRMRYDDPDGDYGRQKRQREVISKVLKKILALDSVSKYRKILSAVSKNMQTNIEISSSTIPKLLGYSDALKSIRTYQLKGEGTTIDGGSYQLVTSKELLKAQNRIKGQLGLKKSTAENLKTTASLYENFYGGDTSIYDSSSSASDYSSSGNYSGSSSDYGSSSSYGSNSSSGSSSDYSGQNSYNQGNYQQPAAGTGIGNLEHHHHHH”, the “soluble on expression in E. coli” value is recorded as “soluble”.

In the case of “MGSDKIHHHHHHMDTKFSCVGCGGCCTDHHVPLTLLEARQWAADGGNVIVLTEAFLSNGYGVAQNQLTHATRRSTEVNSGSTTAFVAITFAAYNVGRCRNLDEENLCRIYERRPLVCRIYPMEINPHIPLRPETKGCPPESWEQGPDLIVGDTLVDTQLMSLIEQSRQADRDEIAAKQLICQQLGIRTTALKGNGFVAYLPDMNAFAAAIENVANLAGAAPENSDWEFHVAGQHVVDTLQQEGADVTDREPVSYLFIPLQAA”, the “soluble on expression in E. coli” value is “not soluble”.

On to “MRLSEAWAERKKNLSCQRGGHGAIITSITSFSEDFMTTMPAAEPVDAAERRAISPVVVYPNGTLEAPDLARLVQAKNGMEKIDEVIIPPRGGRTFTVPKGHFFRIVSIEGPQVGDLNLWNAHDLNERFFSGKTRALHATHVSVGNRLWSNLPSLRPMATITHDTLSWYGFDEDGGGVHDVIGTRCDPYTNKLLSGGDYHHCCHSNLTNALASARGLSFREAEPHVHDVLNVFMCTGFTRDTHQYFMKASPVRPGDYLELFAEIDLIGALSACPGGDCSATHSSDMAACYPLKVEIFRPDMAVLVGWPWPDRNAYRPVELEHHHHHH”, for which the “soluble on expression in E. coli” value is given as “not soluble”.

Regarding “GRRPRTAFTQNQIEVLENVFRVNCYPGIDILEDLAQKLNLELDRIQIWFQNRRAKLKRSHRESQFLM”, the “soluble on expression in E. coli” value is on record as “soluble”.

Regarding “MILRTSEETISTVQEKQQNISPLVRERGPQRVAAHITGTRGRSNTLSSPNSKNEKALGRKINSWESSRSGHSFLSNLHLRNGELVIHEKGFYYIYSQTYFRFQEEIKENTKNDKQMVQYIYKYTSYPAPILLMKSARNSCWSKDAEYGLYSIYQGGIFELKENDRIFVSVTNEHLIDMDHEASFFGAFLVG”, the “soluble on expression in E. coli” value is “soluble”.

As to “MINLQDVSKVYKSKHGDVNAVQNVSLSIKKGEIFGIIGYSGAGKSSLIRLLNGLEKPTSGTVEVAGTKINEVNGRGLRKARHEISMIFQHFNLLWSRTVRDNIMFPLEIAGVKKSERIKRANELIKLVGLEGKEKSYPSQLSGGQKQRVGIARALANNPKVLLCDEATSALDPQTTDSILDLLSDINERLGLTIVLITHEMHVIRKICNRVAVMENGKVVEEGEVLDVFKNPKEQMTKRFVQQVTEPEETKETLQHLLDDTASGKMVQLTFVGESAEQPLITEMIRNFNVSVNILQGKISQTKDGAYGSLFIHIDGDEEEVQNVIRFINDKQVKAEVITNV”, the “soluble on expression in E. coli” value was “not soluble”.

With “MTDLELQQLVATISMHDFHRPFQHRAYFNARLRTTGGRYQLASHDIDINPKMLTDFDEATLIGVIKHELCHYHLHLTKRGYRHRDADFKRLLAQVGGSRYAPAPKQATARPYRYIYECQRCGRRYYRKRRMDTRRYTCGRCQGPIKLVLEHHHHHH”, the “soluble on expression in E. coli” value is “soluble”.

For the sequence “MATIIFAGRSNVGKSTLIYRLTGKKVRRGKRPGVTRKIIEIEWKNHKIIDMPGFGFMMGLPKEVQERIKDEIVHFIEDNAKNIDVAVLVVDGKAAPEIIKRWEKRGEIPIDVEFYQFLRELDIPTIVAVNKLDKIKNVQEVINFLAEKFEVPLSEIDKVFIPISAKFGDNIERLKNRIFEVIRERQGRRV”, the “soluble on expression in E. coli” value was “soluble”.

Turning to “MAHHHHHHMCEKDDITVNEEILQKAQEFQVENEKDIKMKKLKPITEGLLKPEVDLLQISERGSRGRVKICNVLNVPRSEKEYNNNNSDKVENKYIGKIITVCGWSKAIRKQGGGRFCFVNLNDGSCHLNLQIVVNQCIENYEKLLKCGAGCCFRFTGELIISPVQNDNNKKGLLKENVELALNNNDIHNFEIYGENLDPQKYPLSKKNHGKEFLREVAHLRPRSYFISSVIRIRNSLSIATHLFFQSRGFLYIHTPLITTSDCEGGGEMFTVTTLLNENGDIRSIPRINLKNKKKEKREDILNEKNGKKDHMNDSLNNNTCNNNNNNGNSSSSNIVSSPQYEDNYLIDYKKDFFSKQAFLTVSGQLSLENLCSSMGDVYTFGPTFRAENSHTSRHLAEFWMIEPEIAFADLYDNMELAEAYIKYCIDYVLNNNFHDIYYFEENVETNLIKRLKNILNEDFAKITYTNAIEILQNYSDSFEVKVEWGMDLQSEHERFIAEKIFKKPVIVYNYPKDLKAFYMKLNEDNKTVAAMDVLVPKIGEVIGGSQREDNLERLDKMIKEKKLNIDSYWWYRQLRQYGSHPHAGFGLGFERLIMLVTGVDNIKDTIPFPRYPGHAEF”, the “soluble on expression in E. coli” value is reported as “soluble”.

In the case of “MSWQEKINAALDARRAADALRRRYPVAQGAGRWLVADDRQYLNFSSNDYLGLSHHPQIIRAWQQGAEQFGIGSGGSGHVSGYSVVHQALEEELAEWLGYSRALLFISGFAANQAVIAAMMAKEDRIAADRLSHASLLEAASLSPSQLRRFAHNDVTHLARLLASPCPGQQMVVTEGVFSMDGDSAPLAEIQQVTQQHNGWLMVDDAHGTGVIGEQGRGSCWLQKVKPELLVVTFGKGFGVSGAAVLCSSTVADYLLQFARHLIYSTSMPPAQAQALRASLAVIRSDEGDARREKLAALITRFRAGVQDLPFTLADSCSAIQPLIVGDNSRALQLAEKLRQQGCWVTAIRPPTVPAGTARLRLTLTAAHEMQDIDRLLEVLHGNG”, the “soluble on expression in E. coli” value is listed as “soluble”.

Regarding “MASTELSLKRTLTDILEDELYHTNPGHSQFTSHYQNYHPNASITPYKLVNKNKENNTFTWNHSLQHQNESSAASIPPQQTYHFPIFNKYADPTLTTTTSFTTSEATANDRQINNVHLIPNEIKGASETPLQKTVNLKNIMKVSDPYVPTRNTFNYDVKISNDFFDNGDNLYGNDEEVLFYEDNYNPKMQWSLQDNSAAINNEDARAIFNNEFDSDDDDISDDEEDEIEENCLQQEQHQEEPLLSLDVTPISMFGSDQKTGRAKSSSHLFNEYSYVDSNMDSISSVVSEDLLDERGHEKIEDEDEDNDLDEDDIYDISLLKNRRKQSFVLNKNTIDFERFPSPSTSANVPSTATTGKRKPAKSSSNRSCVSNSNENGTLERIKKPTSAVVSSNASRRKLINYTKKHLSSHSSTNSNSKPSTASPSAHTSSSDGNNEIFTCQIMNLITNEPCGAQFSRSYDLTRHQNTIHAKRKIVFRCSECIKILGSEGYQKTFSRLDALTRHIKSKHEDLSLEQRQEVTKFAKANIGYVMG”, the “soluble on expression in E. coli” value is listed as “not soluble”.

Regarding “MFNKKMVAMAMTVPLVMGTLSTVSAVETKKQVKVEAYSPQKKAIEYLKGNANQYGLKPDLSDLQYISTTETPVASYVRFQQVVNGAPVFSNQITVTLNGEGKGVLAVSDYQPIKAVKQVTEKISEKDAIQKSMAYVGEASEQNLWAPTEKEFGYIIEEGIARPVYKVVVHSNNPFGAWETFIDAENGKLIKKVDINRKVEGTGKVFLPNPVVSSGSLAGLKDNNDADSTALTNQLKTVTLKGLDGTGFLIGEYVTISSKARTKSTNLQFNYTRANDSFEDVMSYYHIDTLQRYIQSLGFQNINNRSIKVNVNGTTADNSFYSPTTKALTFGTGGVDDAEDAGIIAHEYGHSIQDNQVPGFGSSAEGGAMGEGFGDFLGATYEDAVSTTGYGKACVGEWDAAAYSSSDPTCLRRLDTNKVYPKDMKNQVHADGEIWSQGQYEMAQAFGRDVATKIILQSHWSLTPNSKFSDGAKAIKQADALLYGGQHAADIDRIWAARGISTN”, the “soluble on expression in E. coli” value is recorded as “not soluble”.

Turning to “MKPRNINNSLPLQPLVPDQENKNKKNEEKSVNPVKITMGSGLNYIEQESLGGKYLTHDLSIKIADISEEIIQQAILSAMSIYKFSITDDLMSMAVNELIKLTKIENNVDLNKFTTICTDVLSPRVTRHNKEKNKRHSTLLKNPLFNFH”, the “soluble on expression in E. coli” value is “not soluble”.

On to “MTQLCSDVRVSPLPGTAKVGDTYILFEHHGPWSHDILDGGTFDKETSAALKAMGCGFYLIRRHGREGRIERPKKTAYLVFGSAGIAEKLMVDDVTDLLKLDVSGPGKNRQFGAEQEAQPIILVCTHAKRDACCAIKGRPMAQALTEEFPDSPVWECSHTKGHRFAPSMVLMPWGYTWGQLNKPAAFDMYRYAQRGQLFLPGNRGRGIWPMKGQIAEVAVAQQLAQEGETVTLGQLRVESIEEAQAHVADSHTARTWTVFLREEVVAGIVDSCHKPPKTGTAWVADRVKENGA”, for which the “soluble on expression in E. coli” value is reported as “not soluble”.

For “MDMTDQAFFKYVRNFNEYQKRSMFGGIGLFSDDAMFALVSNDCCYLRGGNGLDEEFTLLNCEKYKHVKKQTTATVNYYDVTDLFESGFTGLDDLLRKSIDCSIKERKYQKSSASKRLRDLPNMQLTLERMVKKAGIDDVETFLELGPVEVFNKVRVAYGNDVDVKLLWKFAGAIDGVHWKLIQEPRKKQLLALCE”, the “soluble on expression in E. coli” value is listed as “not soluble”.

For “MTLLGTALRPAATRVMLLGSGELGKEVAIECQRLGVEVIAVDRYADAPAMHVAHRSHVINMLDGDALRRVVELEKPHYIVPEIEAIATDMLIQLEEEGLNVVPCARATKLTMNREGIRRLAAEELQLPTSTYRFADSESLFREAVADIGYPCIVKPVMSSSGKGQTFIRSAEQLAQAWKYAQQGGRAGAGRVIVEGVVKFDFEITLLTVSAVDGVHFCAPVGHRQEDGDYRESWQPQQMSPLALERAQEIARKVVLALGGYGLFGVELFVCGDEVIFSEVSPRPHDTGMVTLISQDLSEFALHVRAFLGLPVGGIRQYGPAASAVILPQLTSQNVTFDNVQNAVGADLQIRLFGKPEIDGSRRLGVALATAESVVDAIERAKHAAGQVKVQG”, the “soluble on expression in E. coli” value was “soluble”.

With “MGSDKIHHHHHHMALVALPGGGAVDPAFWSVQAAEDFEQEIVDQYALAMAAAGLSDSHIRNTRSTIIEFARSVTGPLWAATCQDADRFLAEQRRLGRSVSTRAGKAGTLALFYEFMISRYQGRIHRLTGVLVEQPIDEFNRQAGASLGKVRVPPSDAEIDAFFTCWRHSIPQARKYLPAARDYFAASLWRRLGLRITETVMLDIRDWRPDLGGFGKLHVRYGKGAHGRGPKPRLVPAINGAAELIDWWLGDVRHRYGEDWADPDAPLLPSERFDRELGRCGRVGGNALRRSLGLQVDQWLPAWSGRMTPHVLRHYCASSLYGAGMDIKALQELLGHQWLSTTSGYIHVRSEHVEQAWKNANERVESRFATTQKEG”, the “soluble on expression in E. coli” value is reported as “not soluble”.

With “MTDTDTQADRFEQMMWQAVDKLFEQHDGKLESMDGREQELVLIWRTEADIGNGSILQFVCNWGFPAAEKTCSVLKKIGAVHSAMLIHRAADALDKEIRRLQSEGKNLKEMWDITSRQQNRLTAEQSG”, the “soluble on expression in E. coli” value is “not soluble”.

Consider “SLSPAPTTMDFTPAPLEDTSSRPQFCKWPCECPPSPPRCPLGVSLITDGCECCKMCAQQLGDNCTEAAICDPHRGLYCDYSGDRPRYAIGVCAQVVGVGCVLDGVRYNNGQSFQPNCKYNCTCIDGAVGCTPLCLRVRPPRLWCPHPRRVSIPGHCCEQWVCEDDAKRPRKTAPRDTGAFDAVGEG”, for which the “soluble on expression in E. coli” value is given as “soluble”.
